# Residue numbers refer to the chain shown, from its start. Names may count otherwise. “And” between values parts separate entries of the source, which are not always exact repeats. Equal entries are not always repeated.
# B1: S129P, T154A (protein)
# chain: VIHVTKEVKEVATLSCGHNVSVEELAQTRIYWQKEKKMVLTMMSGDMNIWPEYKNRTIFDITNNLSIVILALRPSDEGTYECVVLKYEKDAFKREHLAEVTLSVKADFPTPSISDFEIPTSNIRRIICPTSGGFPEPHLSWLENGEELNAINTAVSQDPETELYAVSSKLDFNMTTNHSFMCLIKYGHLRVNQTFNWNTTKQEHFPDN
# B2: T13R/C16R/L70Q/A71D: variant CD80 IgV-Fc, IgV SEQ ID NO:155 (protein)
# chain: VIHVTKEVKEVARLSRGHNVSVEELAQTRIYWQKEKKMVLTMMSGDMNIWPEYKNRTIFDITNNLSIVIQDLRPSDEGTYECVVLKYEKDAFKREHLAEVTLSVKAD
# B3: E35D/M47I/L65P/D90N: variant CD80 IgV-Fc, IgV SEQ ID NO:167 (protein)
# chain: B2 chain with R13T, R16C, E35D, M47I, L65P, Q70L, D71A, D90N
# B4: K34E/T41A/L72V: variant CD80 IgV-Fc, IgV SEQ ID NO:174 (protein)
# chain: B2 chain with R13T, R16C, K34E, T41A, Q70L, D71A, L72V
# B5: T57I: variant CD80 IgV-Fc, IgV SEQ ID NO:156 (protein)
# chain: B2 chain with R13T, R16C, T57I, Q70L, D71A
# B6: V22L/M38V/M47I/A71D/L85M: variant CD80 IgV-Fc, IgV SEQ ID NO:158 (protein)
# chain: B2 chain with R13T, R16C, V22L, M38V, M47T, Q70L, L85M
# B7: L25S/E35D/M47I/D90N: variant CD80 IgV-Fc, IgV SEQ ID NO:168 (protein)
# chain: B2 chain with R13T, R16C, L25S, E35D, M47I, Q70L, D71A, D90N
# B8: E81K/A91S: variant CD80 IgV-Fc, IgV SEQ ID NO:172 (protein)
# chain: B2 chain with R13T, R16C, Q70L, D71A, E81K, A91S
# B9: T41S/A71D/V84A: variant CD80 IgV-Fc, IgV SEQ ID NO:175 (protein)
# chain: B2 chain with R13T, R16C, T41S, Q70L, V84A
# B10: A71D: variant CD80 IgV-Fc, IgV SEQ ID NO:170 (protein)
# chain: B2 chain with R13T, R16C, Q70L
# B11: V22I/L70M/A71D: variant CD80 IgV-Fc, IgV SEQ ID NO:160 (protein)
# chain: B2 chain with R13T, R16C, V22I, Q70M
# B12: I30V/T57I/L70P/A71D/A91T: variant CD80 IgV-Fc, IgV SEQ ID NO:159 (protein)
# chain: B2 chain with R13T, R16C, I30V, T57I, Q70P, A91T
# B13: M43I/C82R: variant CD80 IgV-Fc, IgV SEQ ID NO:157 (protein)
# chain: B2 chain with R13T, R16C, M43I, Q70L, D71A, C82R
# B14: R29D, Y31L, Q33H, K36G, M38I, T41A, M43R, M47T, N48D, F59L, E81V, L85R, K89N, A91T, F92P, K93V, R94L, I118V, T120S, I127T, T130A, H188D (protein)
# chain: VIHVTKEVKEVATLSCGHNVSVEELAQTDILWHKEGKIVLAMRSGDTDIWPEYKNRTILDITNNLSIVILALRPSDEGTYVCVVRKYENDTPVLEHLAEVTLSVKADFPTPSISDFEVPSSNIRRITCSASGGFPEPHLSWLENGEELNAINTTVSQDPETELYAVSSKLDFNMTTNHSFMCLIKYGDLRVNQTFNWNTTKQEHFPDN
# B15: R29D, Y31L, Q33H, K36G, M38I, T41A, M43R, M47T, L70Q, E81V, L85R, K89N, A91T, F92P, K93V, R94L, T130A, H188D (protein)
# chain: B14 chain with D48N, L59F, L70Q, V118I, S120T, T127I
# B16: R29D, Y31L, Q33H, K36G, M38I, T41A, M43R, M47T, L70Q, E81V, L85R, K89N, A91T, F92P, K93V, R94L, I118V, T120S, I127T, T130A, K169E (protein)
# chain: B14 chain with D48N, L59F, L70Q, K169E, D188H
# B17: R29D, Y31L, Q33H, K36G, M38I, T41A, M43R, M47T, E81V, L85R, K89N, A91T, F92P, K93V, R94L, F108L, I118V, T120S, T130A, K169E, H188D (protein)
# chain: B14 chain with D48N, L59F, F108L, T127I, K169E
# B18: R29D, Y31L, Q33H, K36G, M38I, T41A, M43R, M47T, L85R, K89N, A91T, F92P, K93V, R94L, I118V, T120S, I127T, T130A, K169E, H188D (protein)
# chain: B14 chain with D48N, L59F, V81E, K169E
# B19: R29D, Y31L, Q33H, K36G, M38I, T41A, M43R, M47T, L70Q, E81V, L85R, K89N, A91T, F92P, K93V, R94L, I118V, T120S, T130A, N149D, K169E, H188D (protein)
# chain: B14 chain with D48N, L59F, L70Q, T127I, N149D, K169E
# B20: R29D, Y31L, Q33H, K36G, M38I, T41A, M43R, M47T, L70Q, E81V, L85R, K89N, A91T, F92P, K93V, R94L, I118V, T120S, I127T, T130A, E143G, K169E, M174V, H188D (protein)
# chain: B14 chain with D48N, L59F, L70Q, E143G, K169E, M174V
# B21: R29D, I30V, Y31L, Q33H, K36G, M38I, T41A, M43R, M47T, E81V, L85R, K89N, A91T, F92P, K93V, R94L, I118V, T120S, I127T, T130A, H188D (protein)
# chain: B14 chain with I30V, D48N, L59F
# B22: R29D, Y31L, Q33H, K36G, M38I, T41A, M43R, M47T, L70Q, E81V, K89N, A91T, F92P, K93V, R94L, I118V, T120S, I127T, T130A (protein)
# chain: B14 chain with D48N, L59F, L70Q, R85L, D188H
# B23: R29D, Y31L, Q33H, K36G, M38I, T41A, M43R, M47T, E81V, L85R, K89N, A91T, F92P, K93V, R94L, I118V, T120S, I127T, C128Y, T130A, H188D (protein)
# chain: B14 chain with D48N, L59F, C128Y
# B24: H18R, R29D, Y31L, Q33H, K36G, K37E, M38I, T41A, M43R, M47T, L70Q, E81V, L85R, K89N, A91T, F92P, K93V, R94L, I118V, T120S, T130A, K169E, H188D (protein)
# chain: B14 chain with H18R, K37E, D48N, L59F, L70Q, T127I, K169E
# B25: H18L, R29D, Y31L, Q33H, K36G, M38I, T41A, M43R, M47T, L70Q, E81V, L85R, K89N, A91T, F92P, K93V, R94L, I118V, T120S, T130A, K169E, H188D (protein)
# chain: B14 chain with H18L, D48N, L59F, L70Q, T127I, K169E
# What was measured:
# human pan T cells = assay: Anti-CD3 coimmobilization assay, IFN-gamma; type: cell-based; conditions: Table E34; culture supernatant, 3 days
# In short: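 IFN-gamma in 3-day culture supernatants, quantified by ELISA, reflects costimulation. Human pan T cells or BC3 clone (100,000/well, Ex-Vivo 15) were placed on wells pre-adsorbed overnight with rCD80.Fc variants (1–80 nM) together with anti-CD3 OKT3 (1 nM or 4 nM), unbound protein removed.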
# CD28 = CD28 (Homo sapiens, UniProt P10747); assay: Jurkat/IL2 reporter assay: blockade of CD28 costimulation (plate-bound anti-CD3/CD86-Fc); type: cell-based; parameters: host or cells: Jurkat cells expressing an IL-2-luciferase reporter; conditions: Table E5; protein diluted to 40 nM before mixing with cells; 5 hours
# Experimental: The day before the assay, the assay plate was prepared. […] The plate was incubated overnight at 4° C. to allow the antibody and CD86-Fc protein to adhere to the surface of the plate. The next day, the wells of the assay plate were washed twice with 150 μL PBS prior to the assay.
# Jurkat effector cells expressing IL-2-luciferase reporter were counted and resuspended in assay buffer to a concentration of 2×10^6 cells/mL. 60 μL of the Jurkat cell suspension were then added to the wells containing the CD80-Fc fusion molecules or controls. The cells and CD80 proteins were incubated at room temperature for 15 minutes and then 100 μL of the cell/CD80 protein mixture were transferred/well of the prepared anti-CD3/CD86-Fc assay plate.
# The assay plate was briefly spun down (10 seconds at 1200 RPM) and incubated at 37° C. for 5 hours. After the 5 hour incubation, the plate was removed and equilibrated to room temperature for 15 minutes. 100 μL of Bio-Glo (Promega) were added/well of the assay plate, which was then placed on an orbital shaker for 10 minutes. Luminescence was measured with a 1 second per well integration time using a BioTek Cytation 3 luminometer.
Molecule,Anti-CD3 IFN-gamma Coimmobilization Assay (human pan T cells),Average Relative Luminescence Units (CD28)
B1,156 pg/mL,
B2,,3204 Relative Luminescence Units
B3,,2377 Relative Luminescence Units
B4,,4225 Relative Luminescence Units
B5,,1463 Relative Luminescence Units
B6,,1770 Relative Luminescence Units
B7,,2567 Relative Luminescence Units
B8,,4038 Relative Luminescence Units
B9,,2685 Relative Luminescence Units
B10,,999 Relative Luminescence Units
B11,,253 Relative Luminescence Units
B12,,1731 Relative Luminescence Units
B13,,1326 Relative Luminescence Units
B14,230 pg/mL,
B15,213 pg/mL,
B16,203 pg/mL,
B17,165 pg/mL,
B18,231 pg/mL,
B19,118 pg/mL,
B20,291 pg/mL,
B21,127 pg/mL and 237 pg/mL,
B22,226 pg/mL,
B23,278 pg/mL,
B24,305 pg/mL,
B25,157 pg/mL,

# Reference: patent US20220177587A1, “METHODS AND USES OF VARIANT CD80 FUSION PROTEINS AND RELATED CONSTRUCTS” (Alpine Immune Sciences, Inc., priority 2018, published 2022)
